How the values were obtained:
HeLa Kyoto [1] = assay: melting temperature (median over replicates), in situ; higher = more thermally stable
HeLa Kyoto [2] = assay: solubility in G1/S (NP-40 vs SDS abundance) (log2 ratio); higher = more soluble; conditions: cell cycle stage: G1/S
HeLa Kyoto [3] = assay: thermal stability score vs G1/S (z-score of summed log2 fold changes over temperatures); higher = more thermally stable than in G1/S
HeLa Kyoto [4] = assay: solubility change mitosis vs G1/S (difference of NP-40 vs SDS log2 ratios) (log2 ratio difference); higher = more soluble in mitosis
[5] = cell cycle stage: early G1 (4.5 h after nocodazole release)
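For melting temperature (median over replicates), in situ in this document: HeLa Kyoto cells synchronized by double thymidine or nocodazole block, proteins quantified by TMT10plex mass spectrometry, three independent biological replicates.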
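For solubility change mitosis vs G1/S (difference of NP-40 vs SDS log2 ratios) in this document: synchronized HeLa Kyoto cells (double thymidine block for G1/S, nocodazole release for mitosis), protein amounts in NP-40 versus SDS lysates quantified by mass spectrometry, three biological replicates.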
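For solubility in G1/S (NP-40 vs SDS abundance) in this document: HeLa Kyoto cells arrested at G1/S by double thymidine block, proteins quantified by TMT10plex mass spectrometry in mild NP-40 versus SDS extracts, three biological replicates.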
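For thermal stability score vs G1/S (z-score of summed log2 fold changes over temperatures) in this document: synchronized HeLa Kyoto cells, proteins quantified by TMT10plex mass spectrometry, three biological replicates, mitosis taken 0.5 h after nocodazole release, G1/S directly after double thymidine block.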

| Sequence | melting temperature (HeLa Kyoto [1]; cell cycle stage: G1/S) | melting temperature (HeLa Kyoto [1]; cell cycle stage: mitosis) | solubility in G1/S (log2) (HeLa Kyoto [2]) | thermal stability score (HeLa Kyoto [3]; [5]) | thermal stability score (HeLa Kyoto [3]; cell cycle stage: mitosis) | solubility change mitosis (log2) (HeLa Kyoto [4]) |
| --- | --- | --- | --- | --- | --- | --- |
| MPLFATNPFDQDVEKATSEMNTAEDWGLILDICDKVGQSRTGPKDCLRSIMRRVNHKDPHVAMQALTLLGACVSNCGKIFHLEVCSRDFASEVSNVLNKGHPKVCEKLKALMVEWTDEFKNDPQLSLISAMIKNLKEQGVTFPAIGSQAAEQAKASPALVAKDPGTVANKKEEEDLAKAIELSLKEQRQQSTTLSTLYPSTSSLLTNHQHEGRKVRAIYDFEAAEDNELTFKAGEIITVLDDSDPNWWKGETHQGIGLFPSNFVTADLTAEPEMIKTEKKTVQFSDDVQVETIEPEPEPAFIDEDKMDQLLQMLQSTDPSDDQPDLPELLHLEAMCHQMGPLIDEKLEDIDRKHSELSELNVKVMEALSLYTKLMNEDPMYSMYAKLQNQPYYMQSSGVSGSQVYAGPPPSGAYLVAGNAQMSHLQSYSLPPEQLSSLSQAVVPPSANPALPSQQTQAAYPNTMVSSVQGNTYPSQAPVYSPPPAATAAAATADVTLYQNAGPNMPQVPNYNLTSSTLPQPGGSQQPPQPQQPYSQKALL [STAM] | 50.3 °C | 52 °C | 0.292 | 0.119 | 0.654 | -0.163 |
| MGSVLGLCSMASWIPCLCGSAPCLLCRCCPSGNNSTVTRLIYALFLLVGVCVACVMLIPGMEEQLNKIPGFCENEKGVVPCNILVGYKAVYRLCFGLAMFYLLLSLLMIKVKSSSDPRAAVHNGFWFFKFAAAIAIIIGAFFIPEGTFTTVWFYVGMAGAFCFILIQLVLLIDFAHSWNESWVEKMEEGNSRCWYAALLSATALNYLLSLVAIVLFFVYYTHPASCSENKAFISVNMLLCVGASVMSILPKIQESQPRSGLLQSSVITVYTMYLTWSAMTNEPETNCNPSLLSIIGYNTTSTVPKEGQSVQWWHAQGIIGLILFLLCVFYSSIRTSNNSQVNKLTLTSDESTLIEDGGARSDGSLEDGDDVHRAVDNERDGVTYSYSFFHFMLFLASLYIMMTLTNWYRYEPSREMKSQWTAVWVKISSSWIGIVLYVWTLVAPLVLTNRDFD [SERINC1] | 56.2 °C | 60.6 °C | -0.167 | -4.14 | -5.22 | -0.141 |
| MALVASVRVPARVLLRAGARLPGAALGRTERAAGGGDGARRFGSQRVLVEPDAGAGVAVMKFKNPPVNSLSLEFLTELVISLEKLENDKSFRGVILTSDRPGVFSAGLDLTEMCGRSPAHYAGYWKAVQELWLRLYQSNLVLVSAINGACPAGGCLVALTCDYRILADNPRYCIGLNETQLGIIAPFWLKDTLENTIGHRAAERALQLGLLFPPAEALQVGIVDQVVPEEQVQSTALSAIAQWMAIPDHARQLTKAMMRKATASRLVTQRDADVQNFVSFISKDSIQKSLQMYLERLKEEKG [ECI1] | 56.8 °C | 58.4 °C | 0.58 | -0.579 | -2.1 | 0.043 |
| MVMAYFVENFWGEKNSGFDVLYHNMKHGQISTKELADFVRERATIEEAYSRSMTKLAKSASNYSQLGTFAPVWDVFKTSTEKLANCHLDLVRKLQELIKEVQKYGEEQVKSHKKTKEEVAGTLEAVQTIQSITQALQKSKENYNAKCVEQERLKKEGATQREIEKAAVKSKKATDTYKLYVEKYALAKADFEQKMTETAQKFQDIEETHLIHIKEIIGSLSNAIKEIHLQIGQVHEEFINNMANTTVESLIQKFAESKGTGKERPGLIEFEECDTASAVEGIKPRKRKTFALPGIIKKEKDAESVECPDADSLNIPDVDEEGYSIKPETNQNDTKENHFYSSSDSDSEDEEPKKYRIEIKPMHPNNSHHTMASLDELKVSIGNITLSPAISRHSPVQMNRNLSNEELTKSKPSAPPNEKGTSDLLAWDPLFGPSLDSSSSSSLTSSSSARPTTPLSVGTIVPPPRPASRPKLTSGKLSGINEIPRPFSPPVTSNTSPPPAAPLARAESSSSISSSASLSAANTPTVGVSRGPSPVSLGNQDTLPVAVALTESVNAYFKGADPTKCIVKITGDMTMSFPSGIIKVFTSNPTPAVLCFRVKNISRLEQILPNAQLVFSDPSQCDSNTKDFWMNMQAVTVYLKKLSEQNPAASYYNVDVLKYQVSSNGIQSTPLNLATYWKCSASTTDLRVDYKYNPEAMVAPSVLSNIQVVVPVDGGVTNMQSLPPAIWNAEQMKAFWKLSSISEKSENGGSGSLRAKFDLSEGPSKPTTLAVQFLSEGSTLSGVDFELVGTGYRLSLIKKRFATGRYLADC [FCHO2] | 50.9 °C | 50.9 °C | -0.0326 | -0.516 | 0.0307 | 0.0613 |

Reference: the supplement of paper PMC5998384
